Data on one molecule can be found in patent CN109485724A (FUZHOU MAIXIN BIOTECHNOLOGY DEV CO LTD, dated 2019).

The experiment has as its target T1, 重组Desmin蛋白 (人Desmin α螺旋杆状区第109位至第412位氨基酸片段 + 组氨酸标签, 大肠杆菌表达) (human, UniProt P17661 109-412).
T1 construct: range 109-412; Expressed in E. coli Rosetta from pET-28a(+) (EcoRI/HindIII), solubilised from inclusion bodies in 8 M urea and purified on Ni-NTA; also called 重组Desmin蛋白片段; 免疫原; not shown: histidine tag from vector pET28a(+)
Kind of experiment: indirect ELISA on coated recombinant Desmin; affinity constant calculated from the antibody concentration at half of the plateau OD450.

T1 sequence (P17661 109-412): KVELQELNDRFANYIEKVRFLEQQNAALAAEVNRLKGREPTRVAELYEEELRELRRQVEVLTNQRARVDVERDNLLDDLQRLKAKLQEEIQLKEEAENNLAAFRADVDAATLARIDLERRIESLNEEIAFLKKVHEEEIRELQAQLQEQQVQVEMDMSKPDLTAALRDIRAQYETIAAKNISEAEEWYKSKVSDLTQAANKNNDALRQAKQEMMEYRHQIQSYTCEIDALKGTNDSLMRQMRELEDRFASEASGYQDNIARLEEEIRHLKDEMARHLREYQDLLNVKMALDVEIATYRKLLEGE

B1: 抗Desmin蛋白单克隆抗体(14G1C12) (antibody, V domains shown)
VH: QIQLVQSGPELKKPGETVKISCKASGYTFTNYGMNWVKQAPGKGLKWMGWINTNTGEPTYAEEFKGRFAFSLETSASTAYLQINNLKNEDTATYFCAREFSSWGQGTLVTVSA
VL: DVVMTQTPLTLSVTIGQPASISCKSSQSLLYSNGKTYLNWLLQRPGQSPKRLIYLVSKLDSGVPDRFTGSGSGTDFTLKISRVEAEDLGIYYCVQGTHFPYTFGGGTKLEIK
notes: also called Desmin单克隆抗体; 14G1C12的Desmin
As to B1, the Ka is 6.82e+09 M⁻¹.
